The results in this text go back to PMC2118540.

What all share (assay): FRET or BRET
Test [1] concerns the target HLA-A, B, C (human (endogenous in KU812)).
Test [2] addresses H-2K^b/D^b (mouse (endogenous in BMMCs)).
The target is the same in test [3]. This is another data set of the same source.

Like-named read-outs stand apart in the source and are kept apart here.

“leukocyte immunoglobulin (Ig)-like receptor (LILR) B2 (from UniProt Q8N423 22-597)”: the FRET efficiency (%) in test [1] is 20.7%.
Turning to “β2-microglobulin (β2m), human (from UniProt P61769 21-119) (natural protein)”, the FRET efficiency (%) in test [1] stood at 14.5%.
For the molecule “β2-microglobulin (β2m), mouse (from UniProt P01887 21-119) (natural protein)”, the FRET efficiency (%) in test [2] was 8%.

B1: paired Ig-like receptor (PIR)–B (receptor)
chain: SLPKPILRVQPDSVVSRRTKVTFLCEETIGANEYRLYKDGKLYKTVTKNKQKPENKAEFSFSNVDLSNAGQYRCSYSTQYKSSGYSDLLELVVTGHYWTPSLLAQASPVVTSGGYVTLQCESWHNDHKFILTVEGPQKLSWTQDSQYNYSTRKYHALFSVGPVTPNQRWICRCYSYDRNRPYVWSPPSESVELLVSGNLQKPTIKAEPGSVITSKRAMTIWCQGNLDAEVYFLHNEKSQKTQSTQTLQEPGNKGKFFIPSVTLQHAGQYRCYCYGSAGWSQPSDTLELVVTGIYEYYEPRLSVLPSPVVTAGGNMTLHCASDFPYDKFILTKEDKKFGNSLDTEHISSSGQYRALFIIGPTTPTHTGAFRCYGYYKNAPQLWSVPSALQQILISGLSKKPSLLTHQGHILDPGMTLTLQCFSDINYDRFALHKVGGADIMQHSSQQTDTGFSVANFTLGYVSSSTGGQYRCYGAHNLSSEWSASSEPLDILITGQLPLTPSLSVQPNHTVHSGETVSLLCWSMDSVDTFILSKEGSAQQPLRLKSKSHDQQSQAEFSMSAVTSHLSGTYRCYGAQDSSFYLLSSASAPVELTVSGPIETSTPPPTMSMPLGGLHMYLKALIGVSVAFILFLFIFIFILLRRRHRGKFRKDVQKEKDLQLSSGAEEPITRKGELQKRPNPAAATQEESLYASVEDMQTEDGVELNSWTPPEEDPQGETYAQVKPSRLRKAGHVSPSVMSREQLNTEYEQAEEGQGANNQAAESGESQDVTYAQLCSRTLRQGAAASPLSQAGEAPEEPSVYATLAAARPEAVPKDMEQ
modifications: tyrosine-phosphorylated, constitutively and after IgE stimulation (residues not given)
In test [3], B1 gave an FRET efficiency (%) of 13.5%.
